Five molecules from article PMC6751060 (mBio, 2019) can be followed below.

Sequences and labels used below:
B3: RicA residues 1 to 122 (C-terminally truncated, for crystallography) (domain or fragment, B. subtilis, UniProt O31779 1-122, looked up)
chain: MTLYSKKDIVQQARNLAKMISETEEVDFFKRAEAQINENDKVSTIVNQIKALQKQAVNLKHYEKHEALKQVEAKIDALQEELEEIPVIQEFRDSQMEVNDLLQLVAHTISNQVTNEIITSTG
notes: also called truncated RicA; RicA (amino acids 1 to 122)

For data set [1], the target named is RicA of Bacillus anthracis (B. anthracis). Description: AUC.
The target of data set [2] is T1, RicF (YlbF) of Bacillus subtilis (B. subtilis, UniProt O34412 1-149).
T1 construct: also called RicF^Bsu
T1 sequence (looked up): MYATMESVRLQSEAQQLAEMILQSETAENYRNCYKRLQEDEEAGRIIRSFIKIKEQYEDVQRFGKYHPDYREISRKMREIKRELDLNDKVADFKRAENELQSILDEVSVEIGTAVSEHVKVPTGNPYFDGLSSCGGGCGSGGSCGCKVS
The data set can be described thus: pull-down. To be noted: partners not purified.

Data set [3] concerns the molecule itself. The data set can be described thus: SEC; […]; 20 mM Tris-HCl pH 8.0, 150 mM NaCl, 1 mM DTT. (Size exclusion chromatography separates by hydrodynamic size, large species first.)
Data set [4] concerns the molecule itself. The data set can be described thus: crystal structure.
Data set [5] addresses B3. Description: crystal structure; RicAF crystals; hanging drop, 18% PEG 500 MME, 8% MPD, 100 mM sodium nitrate, 100 mM MOPS, sodium HEPES pH 7.3. To be noted: both partners purified.

One may read the stoichiometry N as a count of units in the complex or per binding partner. Take “RicF of Bacillus anthracis (natural protein)”: in data set [1], the stoichiometry N amounted to 1.

B1: RicA (YmcA) of Bacillus subtilis (natural protein, B. subtilis, UniProt O31779 1-143, looked up)
chain: MTLYSKKDIVQQARNLAKMISETEEVDFFKRAEAQINENDKVSTIVNQIKALQKQAVNLKHYEKHEALKQVEAKIDALQEELEEIPVIQEFRDSQMEVNDLLQLVAHTISNQVTNEIITSTGGDLLKGETGSKVKHSNNSCSL
notes: also called RicA^Bsu
In the case of B1, the binding result in data set [2] was “binds”.

B2: RicA (YmcA) of Bacillus subtilis, expressed alone and purified (natural protein, B. subtilis)
chain: MTLYSKKDIVQQARNLAKMISETEEVDFFKRAEAQINENDKVSTIVNQIKALQKQAVNLKHYEKHEALKQVEAKIDALQEELEEIPVIQEFRDSQMEVNDLLQLVAHTISNQVTNEIITSTGGDLLKGETGSKVKHSNNSCSL
notes: also called RicA dimer; GST-RicA
B2: the “stoichiometry N” value in data set [3] came to 2.

For the molecule B3, the binding result in data set [4] was “binds”.

B4: RicF residues 1 to 121 (C-terminally truncated, for crystallography) (domain or fragment, B. subtilis, UniProt O34412 1-121, looked up)
chain: MYATMESVRLQSEAQQLAEMILQSETAENYRNCYKRLQEDEEAGRIIRSFIKIKEQYEDVQRFGKYHPDYREISRKMREIKRELDLNDKVADFKRAENELQSILDEVSVEIGTAVSEHVKV
notes: also called truncated RicF
Consider B4, for which the binding result in data set [5] is recorded as “binds”.
